From patent US20080188000

Assays:
[1] = system: ZFN 9666 (GR exon 3 four-finger ZFP-FokI) (synthetic); assay: cell_activity; settings: paired with 9674; Ad5/F35 moi 100, CD8+ T-cells after dexamethasone selection; also Cel I cleavage in K562 (FIG. 3A)
[2] = system: ZFN 9674 (GR exon 3 four-finger ZFP-FokI) (synthetic); assay: cell_activity; settings: paired with 9666; Ad5/F35 moi 100, CD8+ T-cells after dexamethasone selection; also Cel I cleavage in K562 (FIG. 3A)

How did the activity (% GR alleles mutated) [1] turn out when “CAACAGGACCAC (double strand) [GR exon 3 sense target (nt 1370-1381)]” was run?
Its activity (% GR alleles mutated) is 70.

Which activity (% GR alleles mutated) [2] does the source give for “GTTGAGGAGCTG (double strand) [GR exon 3 antisense target (nt 1353-1364)]” here?
Its activity (% GR alleles mutated) is 70.
